Target: T1, lysyl oxidase (LOX), recombinant human, in supernatant of doxycycline-induced HEK293 (Flp-In T-REx 293) cells
T1 chain: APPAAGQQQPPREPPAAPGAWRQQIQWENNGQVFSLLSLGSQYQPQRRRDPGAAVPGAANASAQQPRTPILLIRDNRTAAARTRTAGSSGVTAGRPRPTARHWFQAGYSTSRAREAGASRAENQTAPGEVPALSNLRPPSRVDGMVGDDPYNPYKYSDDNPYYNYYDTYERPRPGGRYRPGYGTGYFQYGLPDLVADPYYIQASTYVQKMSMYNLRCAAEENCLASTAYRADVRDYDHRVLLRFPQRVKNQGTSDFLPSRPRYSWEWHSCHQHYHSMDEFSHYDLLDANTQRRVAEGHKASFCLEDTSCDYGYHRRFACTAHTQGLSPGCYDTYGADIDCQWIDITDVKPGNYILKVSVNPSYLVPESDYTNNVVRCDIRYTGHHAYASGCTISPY

B1: bone morphogenetic protein-1 (BMP1), recombinant human, in supernatant of doxycycline-induced HEK293 (Flp-In T-REx 293) cells (protein)
chain: AATSRPERVWPDGVIPFVIGGNFTGSQRAVFRQAMRHWEKHTCVTFLERTDEDSYIVFTYRPCGCCSYVGRRGGGPQAISIGKNCDKFGIVVHELGHVVGFWHEHTRPDRDRHVSIVRENIQPGQEYNFLKMEPQEVESLGETYDFDSIMHYARNTFSRGIFLDTIVPKYEVNGVKPPIGQRTRLSKGDIAQARKLYKCPACGETLQDSTGNFSSPEYPNGYSAHMHCVWRISVTPGEKIILNFTSLDLYRSRLCWYDYVEVRDGFWRKAPLRGRFCGSKLPEPIVSTDSRLWVEFRSSSNWVGKGFFAVYEAICGGDVKKDYGHIQSPNYPDDYRPSKVCIWRIQVSEGFHVGLTFQSFEIERHDSCAYDYLEVRDGHSESSTLIGRYCGYEKPDDIKSTSSRLWLKFVSDGSINKAGFAVNFFKEVDECSRPNRGGCEQRCLNTLGSYKCSCDPGYELAPDKRRCEAACGGFLTKLNGSITSPGWPKEYPPNKNCIWQLVAPTQYRISLQFDFFETEGNDVCKYDFVEVRSGLTADSKLHGKFCGSEKPEVITSQYNNMRVEFKSDNTVSKKGFKAHFFSEKRPALQPPRGRPHQLKFRVQKRNRTPQ
LOX enzymatic activity, fluorometric assay: the induction of the expression of LOX promoted a strong increase in LOX enzymatic activity, that was further augmented upon incubation with BMP1 supernatants in a time-dependent manner
LOX immunoreactivity by western blotting in supernatants of fibroblast cultures, one day: the combination of recombinant LOX and BMP1 resulted in complete proteolysis of the pro-LOX

From patent US20200345898
